Patent US20250092426, “CAS ENDONUCLEASES AND RELATED METHODS” (Flagship Pioneering Innovations VII, LLC, published 2025)

Molecular target: T1, CasEnd-29 (synthetic construct)
T1 chain: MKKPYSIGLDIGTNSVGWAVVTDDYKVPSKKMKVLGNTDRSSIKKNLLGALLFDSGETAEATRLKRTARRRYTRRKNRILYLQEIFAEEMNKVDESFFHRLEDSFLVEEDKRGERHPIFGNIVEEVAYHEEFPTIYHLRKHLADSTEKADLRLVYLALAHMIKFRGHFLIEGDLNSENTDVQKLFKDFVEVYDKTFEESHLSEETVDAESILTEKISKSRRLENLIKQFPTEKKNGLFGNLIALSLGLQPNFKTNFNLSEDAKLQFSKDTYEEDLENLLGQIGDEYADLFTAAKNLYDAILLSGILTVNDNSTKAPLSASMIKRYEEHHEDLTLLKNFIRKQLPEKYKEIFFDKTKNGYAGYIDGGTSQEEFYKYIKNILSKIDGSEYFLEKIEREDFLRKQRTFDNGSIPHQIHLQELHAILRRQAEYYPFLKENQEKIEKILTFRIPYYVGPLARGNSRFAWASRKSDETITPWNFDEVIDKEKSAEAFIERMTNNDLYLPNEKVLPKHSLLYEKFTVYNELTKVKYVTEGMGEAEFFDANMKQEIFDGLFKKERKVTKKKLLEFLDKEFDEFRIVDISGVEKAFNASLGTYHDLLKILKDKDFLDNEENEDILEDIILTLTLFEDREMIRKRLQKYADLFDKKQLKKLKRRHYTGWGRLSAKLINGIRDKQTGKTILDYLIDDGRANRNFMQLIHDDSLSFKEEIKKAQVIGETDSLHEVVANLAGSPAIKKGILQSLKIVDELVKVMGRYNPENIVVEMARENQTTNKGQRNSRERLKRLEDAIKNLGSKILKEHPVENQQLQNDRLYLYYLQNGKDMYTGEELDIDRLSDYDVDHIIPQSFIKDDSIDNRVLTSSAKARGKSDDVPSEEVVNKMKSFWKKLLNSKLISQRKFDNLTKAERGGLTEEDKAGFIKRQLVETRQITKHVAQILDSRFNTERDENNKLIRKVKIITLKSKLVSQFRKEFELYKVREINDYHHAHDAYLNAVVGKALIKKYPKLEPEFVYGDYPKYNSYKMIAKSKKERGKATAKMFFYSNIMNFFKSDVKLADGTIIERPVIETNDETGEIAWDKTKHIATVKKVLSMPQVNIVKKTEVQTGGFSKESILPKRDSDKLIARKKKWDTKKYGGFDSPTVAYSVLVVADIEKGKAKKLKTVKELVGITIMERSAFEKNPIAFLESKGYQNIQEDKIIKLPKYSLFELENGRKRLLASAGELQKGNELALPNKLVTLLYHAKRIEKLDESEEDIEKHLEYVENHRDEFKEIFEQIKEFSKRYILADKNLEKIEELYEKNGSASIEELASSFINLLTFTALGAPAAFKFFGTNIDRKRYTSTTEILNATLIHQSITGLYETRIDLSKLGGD
Assay: cell_activity; +++; HEK293T; PAM not stated
Procedure, shortened: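 BFP-to-GFP conversion via reverse transcriptase fusion with each Cas endonuclease plus template RNA: 200 ng of each plasmid nucleofected into 250,000 BFP-expressing HEK293T cells (program DS-150). Percent GFP+ cells by flow cytometry at day 4 measured editing.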

B1: BFP-to-GFP template RNA ; BFP reporter protospacer (ssRNA ; dsDNA)
RNA: GCCGAAGCACUGCACGCCGUGUUUUAGAGCUAGAAAUAGCAAGUUAAAAUAAGGCUAGUCCGUUAUCAACUUGAAAAAGUGGCACCGAGUCGGUGCACCCUGACGUACGGCGUGCAGUGCUU
DNA 1: GCCGAAGCACTGCACGCCGT
DNA 2: ACGGCGTGCAGTGCTTCGGC
- activity: ≥ 100 % of reference
